Measured values: PMC10858260

Assays:
[1] = system: PsdR-P (phosphorylated with ammonium phosphoramidate) (Lacticaseibacillus paracasei BL23); assay: BLI; details: BLI (BLITz, streptavidin sensors, DNA immobilized): 50 mM Tris-HCl pH 7.4, 150 mM NaCl, 0.1% Tween 20; protein preincubated 30 min with 50 mM phosphodonor and …
[2] = system: ApsR-P (phosphorylated with acetyl-phosphate) (Lacticaseibacillus paracasei BL23); assay: BLI; details: BLI (BLITz, streptavidin sensors, DNA immobilized): 50 mM Tris-HCl pH 7.4, 150 mM NaCl, 0.1% Tween 20; protein preincubated 30 min with 50 mM phosphodonor and …

| Sequence | Kd [1] | Kd [2] |
| --- | --- | --- |
| GTAAGCTACCTTACCAGCTTGTAAGCAACTACGAATCACTGTAAGTAGGCATGGGGCATCATCCCCGCTAAGCTAATAAATGAAAGGGGACGATCACATG (double strand) [PpsdA] | 116 nM | 108000 nM |
| TCACGCTTCTCATATTACGAAACTGTTAGCTCATTGTTACGCAATTCGTTGGCGTCATTTTTTCTGAAAACCTATAATGAATGTGTAAATAAAAACGTGG (double strand) [Pdlt] | 100 nM | 7470 nM |
| GGTAAAGAAAGACTAAAGCAGCTTACAAAGCCGTAAGTTACAAACAACCATCCGTTAGGCCATTATCAGGAAAAAGGCAGCCTAACCCGCTATCATAAAG (double strand) [PderA] | 172 nM | 4740 nM |
| CAATCATCTCGCAAACTTACATCACCTTACAAAAAGGTCAGAAAGGGTGCGAGGGGCTTGTAGATTTCCTATAATGAATAGGAATATAGACACGGAGGAC (double strand) [PmprF] | 94.8 nM | 26600 nM |
